{
  "source": "patent US20210030885A1",
  "about": "“HUMANIZED ANTI-LIV1 ANTIBODIES FOR THE TREATMENT OF CANCER” (priority 2019, published 2021)",
  "key": {"[1]": {"test": "Observed pharmacokinetics of ADC and MMAE after LV Q1W or Q3W dosing", "format": "in vivo, human", "protocol": "To investigate if fractionated dosing could increase treatment efficacy or reduce the number and severity of adverse events, various fractionated dosing schemes of ladiratuzumab vedotin (LV) were tested to measure for changes in Cmax, Ctrough, and AUC at similar total dose intensities and exposure.\nBreast cancer patients were treated with (LV).\nLV was administered as 30-minute IV infusion at the indicated interval. […]"}, "[2]": {"tested_on": "patients", "test": "Adverse event incidence with previous LV dosing regimen 2.5 mg/kg Q3W", "format": "in vivo, human", "settings": "n = 65"}, "[3]": {"test": "Chemical and physical stability of the reconstituted drug product", "format": "physicochemical", "settings": "at 2-8° C. and at room temperature", "protocol": "When reconstituted with 8.8 mL Water for Injection (WFI), US Pharmacopeia (USP), the concentration of reconstituted LV product is 5 mg/mL. The reconstituted drug product is a clear to slightly opalescent, colorless to light yellow solution with no visible particulate matter. The pH is approximately 6.0. The reconstituted solution is subsequently diluted in sterile 0.9% Sodium Chloride for Injection, USP, for IV administration.\nIf not used immediately, the in-use storage should not be longer than 24 hours under refrigeration at 2-8° C. The prepared dosing solution (reconstituted drug product solution and saline dilution in an IV bag or polypropylene syringe) should be administered within 8 hours after exposing to ambient temperature and light condition."}, "[4]": {"settings": "MMAE, LV 1.0 mg/kg weekly (obs.), n = 4, geometric mean (CV %)"}, "[5]": {"settings": "MMAE, LV 2.5 mg/kg q3wk (obs.), geometric mean (CV %)"}},
  "note": "Marks after values point to notes of the source that are not given here.",
  "data": [
    {"substance": "ladiratuzumab vedotin [LV]", "values": [
      {"measurement": "AUC0-21", "setting": "[1]; ADC, 1.0 mg/kg weekly (obs.), n = 4, estimated from observed AUC0-7 d of Cycle 1 Dose #1 and Dose #3", "result": "215.4* μg*day/mL"},
      {"measurement": "Cmax", "setting": "[1]; ADC, 1.0 mg/kg weekly (obs.), n = 4, geo. mean (CV %)", "result": "31.4 (25) μg/mL"},
      {"measurement": "Ctrough", "setting": "[1]; ADC, 1.25 mg/kg weekly (obs.), n = 1", "result": 7.64, "unit": "µg/mL"},
      {"measurement": "AUC0-21", "setting": "[1]; ADC, 1.25 mg/kg weekly (obs.), n = 5, estimated from observed AUC0-7 d of Cycle 1 Dose #1 and Dose #3", "result": "266.9* μg*day/mL"},
      {"measurement": "Cmax", "setting": "[1]; ADC, 1.25 mg/kg weekly (obs.), n = 5, geo. mean (CV %)", "result": "43.3 (31) μg/mL"},
      {"measurement": "AUC0-21", "setting": "[1]; ADC, 2.5 mg/kg q3wk (obs.), n = 97, geo. mean (CV %)", "result": "210 (27) μg*day/mL"},
      {"measurement": "Cmax", "setting": "[1]; ADC, 2.5 mg/kg q3wk (obs.), n = 131, geo. mean (CV %)", "result": "85 (27) μg/mL"},
      {"measurement": "AUC0-21", "setting": "[1]; MMAE, LV 1.0 mg/kg weekly (obs.), n = 4, estimated from observed AUC0-7 d of Cycle 1 Dose #1 and Dose #3", "result": "29.7* μg*day/mL"},
      {"measurement": "Cmax", "setting": "[1]; [4]", "result": "2.1 (61) μg/mL"},
      {"measurement": "Ctrough", "setting": "[1]; [4]", "result": "1.26(75) μg/mL"},
      {"measurement": "Ctrough", "setting": "[1]; MMAE, LV 1.25 mg/kg weekly (obs.), n = 2, geometric mean (CV %)", "result": "2.95(160) μg/mL"},
      {"measurement": "AUC0-21", "setting": "[1]; MMAE, LV 1.25 mg/kg weekly (obs.), n = 5, estimated from observed AUC0-7 d of Cycle 1 Dose #1 and Dose #3", "result": "53.6* μg*day/mL"},
      {"measurement": "Cmax", "setting": "[1]; MMAE, LV 1.25 mg/kg weekly (obs.), n = 5, geometric mean (CV %)", "result": "3.74 (68) μg/mL"},
      {"measurement": "AUC0-21", "setting": "[1]; [5]", "result": "50.3 (61) μg*day/mL"},
      {"measurement": "Cmax", "setting": "[1]; [5]", "result": "5.55 (56) μg/mL"},
      {"measurement": "Ctrough", "setting": "[1]; [5]", "result": "0.34 (80) μg/mL"},
      {"measurement": "Adverse event incidence: Abdominal Pain", "setting": "[2]", "result": "18 (28%)"},
      {"measurement": "Adverse event incidence: Alopecia", "setting": "[2]", "result": "22 (34%)"},
      {"measurement": "Adverse event incidence: Constipation", "setting": "[2]", "result": "32 (49%)"},
      {"measurement": "Adverse event incidence: Decreased Appetite", "setting": "[2]", "result": "29 (45%)"},
      {"measurement": "Adverse event incidence: Diarrhea", "setting": "[2]", "result": "23 (35%)"},
      {"measurement": "Adverse event incidence: Fatigue", "setting": "[2]", "result": "38 (59%)"},
      {"measurement": "Adverse event incidence: Hypokalemia", "setting": "[2]", "result": "17 (26%)"},
      {"measurement": "Adverse event incidence: Nausea", "setting": "[2]", "result": "32 (49%)"},
      {"measurement": "Adverse event incidence: Neutropenia", "setting": "[2]", "result": "19 (29%)"},
      {"measurement": "Adverse event incidence: Peripheral Sensory Neuropathy", "setting": "[2]", "result": "21 (32%)"},
      {"measurement": "Adverse event incidence: Vomiting", "setting": "[2]", "result": "14 (22%)"},
      {"measurement": "Chemical and physical stability of the reconstituted drug product demonstrated for", "setting": "[3]", "result": 24, "unit": "h"}
    ]}
  ]
}
